Source: patent US20190030114

Tests used:
[1] = molecular target: T1, striatal-enriched protein tyrosine phosphatase (STEP), P54830
T1 chain: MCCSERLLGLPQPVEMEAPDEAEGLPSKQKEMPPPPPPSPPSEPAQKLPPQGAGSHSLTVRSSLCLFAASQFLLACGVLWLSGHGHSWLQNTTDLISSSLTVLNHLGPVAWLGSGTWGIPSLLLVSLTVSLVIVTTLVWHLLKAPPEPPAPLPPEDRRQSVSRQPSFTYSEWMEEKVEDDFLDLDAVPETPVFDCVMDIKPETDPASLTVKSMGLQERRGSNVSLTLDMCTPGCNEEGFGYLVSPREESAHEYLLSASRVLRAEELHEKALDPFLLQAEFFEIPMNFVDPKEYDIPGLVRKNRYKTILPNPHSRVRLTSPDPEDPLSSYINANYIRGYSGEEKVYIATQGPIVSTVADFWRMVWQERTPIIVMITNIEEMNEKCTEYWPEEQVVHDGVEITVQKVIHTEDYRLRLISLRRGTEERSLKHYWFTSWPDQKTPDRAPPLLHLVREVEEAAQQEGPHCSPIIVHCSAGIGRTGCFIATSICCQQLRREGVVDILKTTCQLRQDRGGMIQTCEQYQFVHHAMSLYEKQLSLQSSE

Protein | SBDP levels, immunoblot of mouse retinal extracts 6 h after intravitreal NMDA injection (spectrin, P16546) | STEP33 (cleavage product of STEP), Western blot of retina 3 h after IOP elevation [1]
calpain-2 (m-calpain), Mus musculus (protein) SHERAIKYLNQDYETLRNECLEAGALFQDPSFPALPSSLGYKELGPYSSKTRGIEWKRPTEICADPQFIIGGATRTDICQGALGDCWLLAAIASLTLNEEILARVVPPDQSFQENYAGIFHFQFWQYGEWVEVVVDDRLPTKDGELLFVHSAEGSEFWSALLEKAYAKINGCYETLSGGATTEGFEDFTGGIAEWYELRKPPPNLFKIIQKALEKGSLLGCSIDITSAADSEAVTYQKLVKGHAYSVTGAEEVESSGSLQKLIRIRNPWGQVEWTGKWNDNCPSWNTVDPEVRANLTERQEDGEFWMSFSDFLRHYSRLEICNLTPDTLTCDSYKKWKLTKMDGNWRRGSTAGGCRNYPNTFWMNPQYLIKLEEEDEDEEDGGRGCTFLVGLIQKHRRRQRKMGEDMHTIGFGIYEVPEELTGQTNIHLGKNFFLTTRARERSDTFINLREVLNRFKLPPGEYVLVPSTFEPHKDGDFCIRVFSEKKADYQAVDDEIEANIEEIDANEEDIDDGFRRLFVQLAGEDAEISAFELQTILRRVLAKRQDIKSDGFSIETCKIMVDMLDEDGSGKLGLKEFYILWTKIQKYQKIYREIDVDRSGTMNSYEMRKALEEAGFKLPCQLHQVIVARFADDELIIDFDNFVRCLVRLETLFKIFKQLDPENTGTIQLNLASWLSFSVL | Levels of SBDP were significantly increased; injection of C2l significantly suppressed NMDA-induced changes in SBDP | STEP33 was present in WT and calpain-1 KO mice but not in C2l-injected WT mice following increased IOP
calpain-1 (µ-calpain), Mus musculus (protein) MTEELITPVYCTGVSAQVQKKRDKELGLGRHENAIKYLGQDYETLRARCLQSGVLFQDEAFPPVSHSLGFKELGPHSSKTYGIKWKRPTELMSNPQFIVDGATRTDICQGALGDCWLLAAIASLTLNETILHRVVPYGQSFQDGYAGIFHFQLWQFGEWVDVVIDDLLPTKDGKLVFVHSAQGNEFWSALLEKAYAKVNGSYEALSGGCTSEAFEDFTGGVTEWYDLQKAPSDLYQIILKALERGSLLGCSINISDIRDLEAITFKNLVRGHAYSVTGAKQVTYQGQRVNLIRMRNPWGEVEWKGPWSDSSYEWNKVDPYEREQLRVKMEDGEFWMSFRDFIREFTKLEICNLTPDALKSRTLRNWNTTFYEGTWRRGSTAGGCRNYPATFWVNPQFKIRLEEVDDADDYDNRESGCSFLLALMQKHRRRERRFGRDMETIGFAVYQVPRELAGQPVHLKRDFFLANASRAQSEHFINLREVSNRIRPPPGEYIVVPSTFEPNKEGDFLLRFFSEKKAGTQELDDQIQANLPDEKVLSEEEIDDNFKTLFSKLAGDDMEISVKELQTILNRIISKHKDLRTNGFSLESCRSMVNLMDRDGNGKLGLVEFNILWNRIRNYLTIFRKFDLDKSGSMSAYEMRMAIEAAGFKLNKKLHELIITRYSEPDLAVDFDNFVCCLVRLETMFRFFKLLDTDLNGVVTFDLFKWLQLTMFA |  | STEP33 was present in WT and calpain-1 KO mice (no part of calpain-1)
